Assay results published in article PMC5481319.

Target: T1, (FNRD154A)2-His6 D154A (Escherichia coli) (UniProt P0A9E5)
T1 sequence: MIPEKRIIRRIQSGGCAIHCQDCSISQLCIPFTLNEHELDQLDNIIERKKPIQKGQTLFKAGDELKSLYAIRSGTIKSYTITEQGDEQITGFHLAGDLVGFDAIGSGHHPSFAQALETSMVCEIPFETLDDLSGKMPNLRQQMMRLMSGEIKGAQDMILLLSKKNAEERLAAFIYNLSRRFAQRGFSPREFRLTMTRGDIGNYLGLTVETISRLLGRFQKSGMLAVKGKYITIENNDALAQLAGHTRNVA
Assay: EMSA
Details: 20 mM Tris, 50 mM NaCl, 40 mM EDTA ([…], pH 6.8, 30 min at 37 C

TCAGGCAGATAAACCCGTTCTTTGGCCTTGCCACTTAAAGTGCCAAAATCAATCTCCGTACTGATTTTCTCCGGTGTAAAAGAAAGCCCAGTATCAGAAGCCAGTGCAGCAAACGCTACAGGAGCTGAGAGTGCAGTAGCAAGAATCTTTAAGTACATAGACAAGTTAACTCCATTCCACTCGTTTGTTTTTGATAAATATTTTTTTATTTACTCGTAGTAGTCAACTGAAAAATGCTGTTTTGTTTAACGTTTGTTT (double strand) [ompT plasmid promoter PCR product]
binding: binds
